Laboratory results from PMC5636616, “Studies on the Interaction of the Histone Demethylase KDM5B with Tricarboxylic Acid Cycle Intermediates” (Journal of Molecular Biology, 2017).
“And” between values parts separate entries of the source, which are not always exact repeats. Equal entries are not always repeated.

Substrate: O=C(O)CCC(=O)C(=O)O
Test: purified protein, by the assay type
Settings: pH 7.5, 25.0 °C

B1: KDM5B (Homo sapiens) (protein)
chain: MEAATTLHPGPRPALPLGGPGPLGEFLPPPECPVFEPSWEEFADPFAFIHKIRPIAEQTGICKVRPPPDWQPPFACDVDKLHFTPRIQRLNELEAQTRVKLNFLDQIAKYWELQGSTLKIPHVERKILDLFQLNKLVAEEGGFAVVCKDRKWTKIATKMGFAPGKAVGSHIRGHYERILNPYNLFLSGDSLRCLQKPNLTTDTKDKEYKPHDIPQRQSVQPSETCPPARRAKRMRAEAMNIKIEPEETTEARTHNLRRRMGCPTPKCENEKEMKSSIKQEPIERKDYIVENEKEKPKSRSKKATNAVDLYVCLLCGSGNDEDRLLLCDGCDDSYHTFCLIPPLHDVPKGDWRCPKCLAQECSKPQEAFGFEQAARDYTLRTFGEMADAFKSDYFNMPVHMVPTELVEKEFWRLVSTIEEDVTVEYGADIASKEFGSGFPVRDGKIKLSPEEEEYLDSGWNLNNMPVMEQSVLAHITADICGMKLPWLYVGMCFSSFCWHIEDHWSYSINYLHWGEPKTWYGVPGYAAEQLENVMKKLAPELFVSQPDLLHQLVTIMNPNTLMTHEVPVYRTNQCAGEFVITFPRAYHSGFNQGFNFAEAVNFCTVDWLPLGRQCVEHYRLLHRYCVFSHDEMICKMASKADVLDVVVASTVQKDMAIMIEDEKALRETVRKLGVIDSERMDFELLPDDERQCVKCKTTCFMSAISCSCKPGLLVCLHHVKELCSCPPYKYKLRYRYTLDDLYPMMNALKLRAESYNEWALNVNEALEAKINKKKSLVSFKALIEESEMKKFPDNDLLRHLRLVTQDAEKCASVAQQLLNGKR
Km (other: 0 μM oxaloacetate): 5.0 µM
Km (other: 0 μM succinate): 3.4 µM
Km (other: KDM5B(1–822), no inhibitor, 5 μM H3K4me2(1–21)): 3 µM and 2.6 ± 0.6 µM
Km (other: Table S1, succinate data set, competitive inhibition model): 3.01 µM
Km (other: Table S2, oxaloacetate data set, competitive inhibition model): 5.91 µM
